Publication PMC11767649

Target: rhRKIP C133A mutant, histidine-tagged (human) (UniProt P30086)
Test: non-reducing SDS-PAGE; purified rhRKIP in sample loading buffer without β-mercaptoethanol or boiling; Coomassie Brilliant Blue staining or anti-His immunoblot

## rhRKIP C133A mutant, histidine-tagged (from UniProt P30086 1-187) (natural protein)
  stoichiometry N: 2
